Here are results for 22 molecules from patent US20240270846A1 (published 2024).

B1: CE115HA000 K52R one-arm antibody (antibody, human IgG1, kappa, L234A L235A, N297A, name in Kabat numbering)
heavy: QVQLVESGGGVVQPGRSLRLSCAASGFTFSNAWMHWVRQAPGKGLEWVAQIRAKSNNYATYYAESVKGRFTISRDDSKNSLYLQMNSLKTEDTAVYYCRYVHYGAYYGVDAWGQGTTVTVSSASTKGPSVFPLAPSSKSTSGGTAALGCLVKDYFPEPVTVSWNSGALTSGVHTFPAVLQSSGLYSLSSVVTVPSSSLGTQTYICNVNHKPSNTKVDKKVEPKSCDKTHTCPPCPAPEAAGGPSVFLFPPKPKDTLMISRTPEVTCVVVDVSHEDPEVKFNWYVDGVEVHNAKTKPREEQYASTYRVVSVLTVLHQDWLNGKEYKCKVSNKALPAPIEKTISKAKGQPREPQVYTLPPSRCELTKNQVSLSCAVKGFYPSDIAVEWESNGQPENNYKTTPPVLDSDGSFFLVSKLTVDKSRWQQGNVFSCSVMHEALHNHYTQKSLSLSPDYKDDDDK
chain: EPKSSDKTHTCPPCPAPELLGGPSVFLFPPKPKDTLMISRTPEVTCVVVDVSHEDPEVKFNWYVDGVEVHNAKTKPREEQYNSTYRVVSVLTVLHQDWLNGKEYKCKVSNKALPAPIEKTISKAKGQPREPQVCTLPPSRDELTKNQVSLWCLVKGFYPSDIAVEWESNGQPENNYKTTPPVLDSDGSFFLYSKLTVDKSRWQQGNVFSCSVMHEALHNRYTQKSLSLSP
light: DIVMTQSPLSLPVTPGEPASISCRSSQSLVHSNRNTYLHWYQQKPGQAPRLLIYKVSNRFSGVPDRFSGSGSGTDFTLKISRVEAEDVGVYYCGQGTQVPYTFGQGTKLEIKRTVAAPSVFIFPPSDEQLKSGTASVVCLLNNFYPREAKVQWKVDNALQSGNSQESVTEQDSKDSTYSLSSTLTLSKADYEKHKVYACEVTHQGLSSPVTKSFNRGEC
notes: one-arm antibody
B2: CE115HA000 K52bD one-arm antibody (antibody, human IgG1, kappa, L234A L235A, N297A, name in Kabat numbering)
heavy: B1 heavy with R52K, K54D
chain: B1 chain
light: B1 light
notes: one-arm antibody
B3: CE115HA000 K52bR one-arm antibody (antibody, human IgG1, kappa, L234A L235A, N297A, name in Kabat numbering)
heavy: B1 heavy with R52K, K54R
chain: B1 chain
light: B1 light
notes: one-arm antibody
B4: CE115HA000 K52bY one-arm antibody (antibody, human IgG1, kappa, L234A L235A, N297A, name in Kabat numbering)
heavy: B1 heavy with R52K, K54Y
chain: B1 chain
light: B1 light
notes: one-arm antibody
B5: CE115HA000 N31K one-arm antibody (antibody, human IgG1, kappa, L234A L235A, N297A, name in Kabat numbering)
heavy: B1 heavy with N31K, R52K
chain: B1 chain
light: B1 light
notes: one-arm antibody
B6: CE115HA000 K52bS one-arm antibody (antibody, human IgG1, kappa, L234A L235A, N297A, name in Kabat numbering)
heavy: B1 heavy with R52K, K54S
chain: B1 chain
light: B1 light
notes: one-arm antibody
B7: CE115HA000 N31I one-arm antibody (antibody, human IgG1, kappa, L234A L235A, N297A, name in Kabat numbering)
heavy: B1 heavy with N31I, R52K
chain: B1 chain
light: B1 light
notes: one-arm antibody
B8: CE115HA000 N31H one-arm antibody (antibody, human IgG1, kappa, L234A L235A, N297A, name in Kabat numbering)
heavy: B1 heavy with N31H, R52K
chain: B1 chain
light: B1 light
notes: one-arm antibody
B9: CE115HA000 N31G one-arm antibody (antibody, human IgG1, kappa, L234A L235A, N297A, name in Kabat numbering)
heavy: B1 heavy with N31G, R52K
chain: B1 chain
light: B1 light
notes: one-arm antibody
B10: CE115HA000 N31F one-arm antibody (antibody, human IgG1, kappa, L234A L235A, N297A, name in Kabat numbering)
heavy: B1 heavy with N31F, R52K
chain: B1 chain
light: B1 light
notes: one-arm antibody
B11: CE115HA000 K64E one-arm antibody (antibody, human IgG1, kappa, L234A L235A, N297A, name in Kabat numbering)
heavy: B1 heavy with R52K, K67E
chain: B1 chain
light: B1 light
notes: one-arm antibody
B12: CE115HA000 K52bL one-arm antibody (antibody, human IgG1, kappa, L234A L235A, N297A, name in Kabat numbering)
heavy: B1 heavy with R52K, K54L
chain: B1 chain
light: B1 light
notes: one-arm antibody
B13: CE115HA000 K52Y one-arm antibody (antibody, human IgG1, kappa, L234A L235A, N297A, name in Kabat numbering)
heavy: B1 heavy with R52Y
chain: B1 chain
light: B1 light
notes: one-arm antibody
B14: CE115HA000 K52bA one-arm antibody (antibody, human IgG1, kappa, L234A L235A, N297A, name in Kabat numbering)
heavy: B1 heavy with R52K, K54A
chain: B1 chain
light: B1 light
notes: one-arm antibody
B15: CE115HA000 K64D one-arm antibody (antibody, human IgG1, kappa, L234A L235A, N297A, name in Kabat numbering)
heavy: B1 heavy with R52K, K67D
chain: B1 chain
light: B1 light
notes: one-arm antibody
B16: CE115HA000 N31A one-arm antibody (antibody, human IgG1, kappa, L234A L235A, N297A, name in Kabat numbering)
heavy: B1 heavy with N31A, R52K
chain: B1 chain
light: B1 light
notes: one-arm antibody
B17: CE115HA000 K52W one-arm antibody (antibody, human IgG1, kappa, L234A L235A, N297A, name in Kabat numbering)
heavy: B1 heavy with R52W
chain: B1 chain
light: B1 light
notes: one-arm antibody
B18: CE115HA000 K52S one-arm antibody (antibody, human IgG1, kappa, L234A L235A, N297A, name in Kabat numbering)
heavy: B1 heavy with R52S
chain: B1 chain
light: B1 light
notes: one-arm antibody
B19: CE115HA000 K52bQ one-arm antibody (antibody, human IgG1, kappa, L234A L235A, N297A, name in Kabat numbering)
heavy: B1 heavy with R52K, K54Q
chain: B1 chain
light: B1 light
notes: one-arm antibody
B20: CE115HA000 N31D one-arm antibody (antibody, human IgG1, kappa, L234A L235A, N297A, name in Kabat numbering)
heavy: B1 heavy with N31D, R52K
chain: B1 chain
light: B1 light
notes: one-arm antibody
B21: CE115HA000 K52bN one-arm antibody (antibody, human IgG1, kappa, L234A L235A, N297A, name in Kabat numbering)
heavy: B1 heavy with R52K, K54N
chain: B1 chain
light: B1 light
notes: one-arm antibody
B22: CE115HA000 K64A one-arm antibody (antibody, human IgG1, kappa, L234A L235A, N297A, name in Kabat numbering)
heavy: B1 heavy with R52K, K67A
chain: B1 chain
light: B1 light
notes: one-arm antibody

Substitutions are numbered along the chain they refer to. Names may count otherwise.
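Further: CD3 epsilon homodimer amine-coupled on a CM4 chip, run at 25 °C in HBS-EP+, Z = bound amount of each single-residue H chain variant over that of the parent antibody.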

The target in the assay is T1, CD3 epsilon homodimer protein (UniProt P07766 23-126).
T1 construct: also called CD3 (CD3 epsilon)
T1 sequence (P07766 23-126): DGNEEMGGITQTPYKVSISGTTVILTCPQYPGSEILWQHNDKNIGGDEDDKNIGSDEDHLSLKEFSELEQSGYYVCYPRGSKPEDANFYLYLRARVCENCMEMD
Description: SPR Biacore T200, antibody over immobilised CD3e homodimer. (In general: In SPR one partner is held on a chip, and binding of the other changes the refractive index at the surface.)
Description: An appropriate amount of CD3 epsilon homodimer protein was immobilized onto Sensor chip CM4 (GE Healthcare Japan Corp.) by the amine coupling method. Then, the antibody having an appropriate concentration was injected thereto as an analyte and allowed to interact with the CD3 epsilon homodimer protein on the sensor chip. Then, the sensor chip was regenerated by the injection of 10 mmol/L glycine-HCl (pH 1.5). The assay was conducted at 25 degrees C., and HBS-EP+(GE Healthcare Japan Corp.) was used as a running buffer. […] Each parameter was calculated using Biacore T200 Evaluation Software (GE Healthcare Japan Corp.).
Specifically, when the amount of the antibody comprising CE115HA000 bound was defined as X and the amount of the H chain one-amino acid altered form bound was defined as Y, a value of Z (ratio of amounts bound)=Y/X was used.
As for B1, the “ratio of amounts bound (Z=Y/X vs CE115HA000)” value (shortened to “ratio of amounts bound”) was 0.91.
The result for B2 reads 0.27.
The result for B3 reads 1.11; that for B4, 0.74; that for B5, 1.01.
For B6 the value was 0.68.
For B7, the “ratio of amounts bound” value worked out at 0.81.
The result for B8 reads 0.68; that for B9, 0.39.
The result for B10 reads 0.62; that for B11, 0.74; that for B12, 0.61.
For the molecule B13, the “ratio of amounts bound” value came out at 0.18.
Consider B14, for which the “ratio of amounts bound” value is 0.67.
B15: the “ratio of amounts bound” value is 0.72.
Take B16: the “ratio of amounts bound” value turned out to be 0.5.
The result for B17 reads 0.22; that for B18, 0.28.
For the molecule B19, the “ratio of amounts bound” value was 0.6.
The result for B20 reads 0.37.
For B21 the value was 0.27.
For B22, the “ratio of amounts bound” value is 0.82.
